Test results: article PMC9888389

Biological target: T1, Atg7, endogenous in mouse heart, Q9D906
T1 chain: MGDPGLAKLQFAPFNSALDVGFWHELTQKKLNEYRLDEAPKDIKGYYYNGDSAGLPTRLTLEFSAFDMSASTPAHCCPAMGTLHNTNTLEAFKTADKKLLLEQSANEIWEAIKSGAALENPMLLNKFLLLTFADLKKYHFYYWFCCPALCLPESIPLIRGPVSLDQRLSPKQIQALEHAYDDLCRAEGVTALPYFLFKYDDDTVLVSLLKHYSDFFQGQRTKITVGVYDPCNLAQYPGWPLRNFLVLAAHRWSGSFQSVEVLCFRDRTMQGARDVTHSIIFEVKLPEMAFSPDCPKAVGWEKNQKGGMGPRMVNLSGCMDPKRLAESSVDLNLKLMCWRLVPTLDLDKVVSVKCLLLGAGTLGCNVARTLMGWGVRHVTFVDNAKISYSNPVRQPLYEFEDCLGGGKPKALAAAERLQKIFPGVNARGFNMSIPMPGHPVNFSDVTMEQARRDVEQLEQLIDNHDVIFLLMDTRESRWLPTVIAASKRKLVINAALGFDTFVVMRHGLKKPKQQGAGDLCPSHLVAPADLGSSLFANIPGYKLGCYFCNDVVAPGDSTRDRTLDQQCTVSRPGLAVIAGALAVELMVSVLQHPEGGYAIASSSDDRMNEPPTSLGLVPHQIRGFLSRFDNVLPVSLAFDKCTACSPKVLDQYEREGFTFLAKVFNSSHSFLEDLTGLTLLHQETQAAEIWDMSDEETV
Experiment: coimmunoprecipitation with anti-FLAG-agarose beads, immunoblot for Atg7, quantified
Details: chain shown with the change, Tg-Flag-Trx1 C35S mouse heart, n = 4, read off a plot

B1: Trx1 (wild type) C35S (protein)
chain: MVKQIESKTAFQEALDAAGDKLVVVDFSATWCGPSKMIKPFFHSLSEKYSNVIFLEVDVDDCQDVASECEVKCMPTFQFFKKGQKVGEFSGANKEKLEATINELV
In the case of B1, the response (Arbitrary unit) (ischemia for 20 minutes) is reported as 0.8 and the response (Arbitrary unit) (sham operation) is reported as 0.55.
